Data published in US20090022714A1, “Combination methods of inhibiting tumor growth with a vascular endothelial growth factor receptor antagonist” (ImClone Systems, Inc., priority 2001, published 2009).

B1: c-p1C11: chimeric p1C11 IgG1: p1C11 variable domains with human κ and γ1 constant regions (antibody, V domains shown)
VH: QVKLQQSGAELVGSGASVKLSCTTSGFNIKDFYMHWVKQRPEQGLEWIGWIDPENGDSDYAPKFQGKATMTADSSSNTAYLQLSSLTSEDTAVYYCNAYYGDYEGYWGQGTTVTVSS
VL: DIELTQSPAIMSASPGEKVTITCSASSSVSYMHWFQQKPGTSPKLWIYSTSNLASGVPARFSGSGSGTSYSLTISRMEAEDAATYYCQQRSSYPFTFGSGTKLEIK
B2: D2H2: human anti-KDR (VEGFR-2) VEGF-blocking Fab clone (antibody, V domains shown)
VH: EVQLVQSGGGLVKPGGSLRLSCAASGFTFSSYSMNWVRQAPGKGLEWVSSISSSSSYIYYADSVKGRFTISRDNAKDSLYLQMNSLRAEDTAVYYCARVTDAFDIWGQGTMVTVSS
VL: DIQLTQSPSSVSASVGDRVTITCRASQGISSRLAWYQQKPGKAPKLLIYAASSLQTGVPSRFSGSGSGTDFTLTISSLQPEDFATYYCQQANRFPPTFGPGTKVDIK

Tests used:
KDR (VEGFR-2) [1] = molecular target: T1, KDR (VEGFR-2) (Homo sapiens, UniProt P35968); test: Quantitative KDR binding assay (chimeric IgG and scFv); design: the cDNA for KDR (VEGFR-2) extracellular domain is fused in-frame with the cDNA for human placental AP; made in house; host or cells: stably transfected NIH 3T3 cells, purified from supernatant on anti-AP antibody; conditions: ELISA, FIG. 20
Method: Various amounts of antibodies were added to KDR (VEGFR-2)-coated 96-well Maxi-sorp microtiter plates (Nunc. Danmark) and incubated at room temperature for 1 h, after which the plates were washed 3 times with PBS containing 0.1% Tween-20. The plates were then incubated at RT for 1 h with 100 ul of mouse anti-E tag antibody-HRP conjugate (Pharmacia Biotech) for the scFv, or rabbit anti-human IgG Fc specific antibody-HRP conjugate (Cappel, Organon Teknika Corp.) for the chimeric IgG. The plates were washed 5 times, TMB peroxidase substrate (KPL, Gaithersburg, Md.) added, and the OD at 450 nm read using a microplate reader (Molecular Device, Sunnyvale, Calif.).
Target sequence in this assay (P35968 20-764 limits assumed): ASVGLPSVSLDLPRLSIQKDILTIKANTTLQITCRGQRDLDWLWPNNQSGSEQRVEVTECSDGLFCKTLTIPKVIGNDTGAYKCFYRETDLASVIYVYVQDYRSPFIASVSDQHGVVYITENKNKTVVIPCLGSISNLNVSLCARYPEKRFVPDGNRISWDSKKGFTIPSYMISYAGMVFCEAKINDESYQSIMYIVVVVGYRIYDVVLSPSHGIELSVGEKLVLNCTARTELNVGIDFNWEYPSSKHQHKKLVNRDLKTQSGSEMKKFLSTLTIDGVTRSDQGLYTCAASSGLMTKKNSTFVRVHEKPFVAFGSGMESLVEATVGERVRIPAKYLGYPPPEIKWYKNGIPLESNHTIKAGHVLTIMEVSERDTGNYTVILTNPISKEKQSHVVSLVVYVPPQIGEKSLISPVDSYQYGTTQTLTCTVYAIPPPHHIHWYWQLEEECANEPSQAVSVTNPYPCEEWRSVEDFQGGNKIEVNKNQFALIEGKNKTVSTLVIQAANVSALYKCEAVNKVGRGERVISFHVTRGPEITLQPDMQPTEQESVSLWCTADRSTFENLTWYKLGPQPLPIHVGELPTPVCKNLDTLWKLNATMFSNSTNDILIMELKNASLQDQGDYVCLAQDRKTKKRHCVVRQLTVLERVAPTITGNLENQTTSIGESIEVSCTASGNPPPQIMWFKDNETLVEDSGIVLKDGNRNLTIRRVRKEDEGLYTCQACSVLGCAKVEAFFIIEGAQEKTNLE

[2] = molecular target: T2, immobilized KDR (VEGFR-2) receptor (Homo sapiens, UniProt P35968); test: Competitive VEGF binding assay, second assay (radiolabeled VEGF165 to immobilized KDR); conditions: FIG. 23
T2 construct: the cDNA for KDR (VEGFR-2) extracellular domain is fused in-frame with the cDNA for human placental AP; human placental alkaline phosphatase (AP), inferred for these assays; made in house; host or cells: NIH 3T3 (inferred: the only KDR protein whose making is described)
T2 sequence (P35968 20-764 limits assumed): as above

p44/p42 MAP kinases = test: MAP kinase phosphorylation assay in HUVEC (chimeric IgG); format: cell-based, human
Method: (§1) Subconfluent HUVEC cells were grown in growth factor depleted EBM-2 medium for 24 to 48 h prior to experimentation. […] The cells were then lysed in lysis buffer ([…], 150 mM NaCl, 1% NP-40, 2 mM EDTA, 0.25% sodium deoxycholate, 1 mM PMSF, 1 μg/ml leupeptin, 1 μg/ml pepstatin, 10 μg/ml aprotinin, pH 7.5) and the cell lysate used for both the KDR (VEGFR-2) and MAP kinase phosphorylation assays. The KDR (VEGFR-2) receptor was immunoprecipitated from the cell lysates with Protein A Sepharose beads (Santa Cruz Biotechnology, Inc., CA) coupled to an anti-KDR (VEGFR-2) antibody, Mab 4.13 (ImClone Systems). Proteins were resolved with SDS-PAGE and subjected to Western blot analysis. To detect KDR (VEGFR-2) phosphorylation, blots were probed with an antiphosphotyrosine Mab, PY20 (ICN Biomedicals, Inc. Aurora, Ohio). For the MAP kinase activity assay, cell lysates were resolved with SDS-PAGE followed by Western blot analysis using a phospho-specific MAP kinase antibody (New England BioLabs, Beverly, Mass.). All signals were detected using ECL (Amersham, Arlington Heights, Ill.). In both assays, the blots were reprobed with a polyclonal anti-KDR (VEGFR-2) antibody (ImClone Systems) to assure that equal amount of protein was loaded in each lane of SDS-PAGE gels.

[3] = test system: KDR (VEGFR-2)-expressing HUVEC; test: FACS analysis of c-p1C11 on HUVEC; format: binding, human; conditions: 5 μg/ml
Method: Early passage HUVEC cells were grown in growth factor-depleted EBM-2 medium overnight to induce the expression of KDR (VEGFR-2). The cells were harvested and washed three times with PBS, incubated with c-p1C11 IgG (5 μg/ml) for 1 h at 4° C., followed by incubation with a FITC labeled rabbit anti-human Fc antibody (Capper, Organon Teknika Corp., West Chester, Pa.) for an additional 60 min. The cells were washed and analyzed by a flow cytometer (Model EPICS®, Coulter Corp., Edison, N.J.).

KDR (VEGFR-2) [4] = molecular target: T1, KDR (VEGFR-2); test: KDR phosphorylation assay in HUVEC (chimeric IgG); format: cell-based; design: endogenous in cells; host or cells: HUVEC, early passage
Method: as §1
Target sequence in this assay (P35968 20-1356): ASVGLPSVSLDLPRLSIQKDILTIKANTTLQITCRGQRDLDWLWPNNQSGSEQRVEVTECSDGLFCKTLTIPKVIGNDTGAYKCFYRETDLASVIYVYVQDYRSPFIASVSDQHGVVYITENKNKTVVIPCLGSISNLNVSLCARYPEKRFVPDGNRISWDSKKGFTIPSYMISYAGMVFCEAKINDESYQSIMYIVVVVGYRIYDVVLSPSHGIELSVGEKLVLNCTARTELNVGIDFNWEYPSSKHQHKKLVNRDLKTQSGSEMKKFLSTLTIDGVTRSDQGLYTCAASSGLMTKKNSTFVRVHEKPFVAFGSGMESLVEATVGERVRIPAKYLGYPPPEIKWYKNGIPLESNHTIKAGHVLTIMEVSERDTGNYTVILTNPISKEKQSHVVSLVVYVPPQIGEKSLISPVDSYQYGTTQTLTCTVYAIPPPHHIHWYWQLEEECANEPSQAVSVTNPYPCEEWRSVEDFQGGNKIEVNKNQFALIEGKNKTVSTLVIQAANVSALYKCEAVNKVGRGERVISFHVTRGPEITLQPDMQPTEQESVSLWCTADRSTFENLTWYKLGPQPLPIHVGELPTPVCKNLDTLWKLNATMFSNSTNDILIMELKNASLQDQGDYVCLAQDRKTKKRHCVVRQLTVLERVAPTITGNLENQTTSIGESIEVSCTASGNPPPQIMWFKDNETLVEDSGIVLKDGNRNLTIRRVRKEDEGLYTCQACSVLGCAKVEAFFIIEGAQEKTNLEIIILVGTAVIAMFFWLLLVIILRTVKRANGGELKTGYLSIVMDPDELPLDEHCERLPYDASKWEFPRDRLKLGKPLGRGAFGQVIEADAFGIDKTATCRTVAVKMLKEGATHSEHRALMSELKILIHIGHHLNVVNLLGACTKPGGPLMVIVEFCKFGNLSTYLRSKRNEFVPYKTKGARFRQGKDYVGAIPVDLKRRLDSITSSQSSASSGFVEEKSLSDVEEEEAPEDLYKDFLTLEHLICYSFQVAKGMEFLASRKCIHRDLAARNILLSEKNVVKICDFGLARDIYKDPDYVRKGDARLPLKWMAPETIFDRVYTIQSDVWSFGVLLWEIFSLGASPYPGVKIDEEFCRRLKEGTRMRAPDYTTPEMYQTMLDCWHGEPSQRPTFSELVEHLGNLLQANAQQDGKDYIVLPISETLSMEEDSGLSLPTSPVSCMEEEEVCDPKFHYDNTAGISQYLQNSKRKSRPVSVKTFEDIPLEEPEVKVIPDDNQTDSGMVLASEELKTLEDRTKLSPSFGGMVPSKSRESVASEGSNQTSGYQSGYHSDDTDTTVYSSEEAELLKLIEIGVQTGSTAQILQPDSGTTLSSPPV

KDR (VEGFR-2) [5] = molecular target: T1, KDR (VEGFR-2); test: BIAcore analysis of p1C11 scFv, c-p1C11 and VEGF; format: binding; design: the cDNA for KDR (VEGFR-2) extracellular domain is fused in-frame with the cDNA for human placental AP; made in house; host or cells: stably transfected NIH 3T3 cells, purified from supernatant on anti-AP antibody; conditions: BIAcore, Table 2
Method: The binding kinetics of antibodies to KDR (VEGFR-2) were measured using BIAcore biosensor (Pharmacia Biosensor). […] Sensorgrams were obtained at each concentration and were evaluated using a program, BIA Evaluation 2.0, to determine the rate constants kon and koff. Kd was calculated as the ratio of rate constants koff/kon.
Target sequence in this assay (P35968 20-764 limits assumed): as the sequence (P35968 20-764 limits assumed) above

[6] = molecular target: T3, KDR (VEGFR-2) binding to VEGF (Homo sapiens, UniProt P35968); test: Competitive VEGF binding assay, first assay (KDR-AP to immobilized VEGF165); conditions: FIG. 22
T3 construct: the cDNA for KDR (VEGFR-2) extracellular domain is fused in-frame with the cDNA for human placental AP; made in house; host or cells: stably transfected NIH 3T3 cells, purified from supernatant on anti-AP antibody
T3 sequence (P35968 20-764 limits assumed): as above
Method: In the first assay, various amounts of antibodies were mixed with a fixed amount of KDR (VEGFR-2)-AP (50 ng) and incubated at room temperature for 1 h.

HUVEC = test: Anti-mitogenic assay, [3H]-TdR, HUVEC (chimeric IgG and scFv); format: cell-based, human; conditions: FIG. 24
Method: The effect of anti-KDR (VEGFR-2) antibodies on VEGF-stimulated mitogenesis of human endothelial cells was determined with a [^3H]-TdR DNA incorporation assay using HUVEC. […] After 18 hours of incubation, 0.25 μCi of [^3H]-TdR was added to each well and incubated for an additional 4 hours. DNA incorporated radioactivity was determined with a scintillation counter. The data shown in FIG. 24 are representative of at least three separate experiments.

KDR (VEGFR-2) [7] = molecular target: T1, KDR (VEGFR-2); test: BIAcore analysis of soluble Fab; format: binding; design: the cDNA for KDR (VEGFR-2) extracellular domain is fused in-frame with the cDNA for human placental AP; made in house; host or cells: stably transfected NIH 3T3 cells, purified from supernatant on anti-AP antibody; conditions: mean±SE
Method: The binding kinetics of soluble Fab proteins to KDR (VEGFR-2) were measured by surface plasmon resonance using a BIAcore biosensor (Pharmacia Biosensor). KDR (VEGFR-2)-AP fusion protein was immobilized onto a sensor chip and soluble Fab proteins were injected at concentrations ranging from 1.5 nM to 100 nM. Sensorgrams were obtained at each concentration and were evaluated using a program, BIA Evaluation 2.0, to determine the rate constants kon and koff Kd was calculated from the ratio of rate constants koff/kon.
Target sequence in this assay (P35968 20-764 limits assumed): as above

[8] = test system: KDR (VEGFR-2), KDR (VEGFR-2)(1-3), KDR (VEGFR-2)(3); test: Binding epitope mapping with KDR Ig-domain deletion variants; design: species or system human
Chain of KDR (VEGFR-2), KDR (VEGFR-2)(1-3), KDR (VEGFR-2)(3) (P35968 224-327 limits assumed): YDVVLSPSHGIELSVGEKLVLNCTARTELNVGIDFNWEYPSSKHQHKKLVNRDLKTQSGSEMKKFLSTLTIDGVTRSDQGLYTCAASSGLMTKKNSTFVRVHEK
Method: The production of KDR (VEGFR-2) extracellular Ig-like domain deletion variants has been previously described (Lu et al. (2000)). In an epitope-mapping assay, full length KDR (VEGFR-2)-AP, Ap fusions of two KDR (VEGFR-2) Ig-domain deletion variants, and Flk-1-AP were first immobilized onto a 96-well plate (Nunc) using a rabbit anti-AP antibody (DAKO-immunoglobulins, Glostrup, Denmark) as the capture reagent. The plate was then incubated with various anti-KDR (VEGFR-2) Fab proteins at RT for 1 h, followed by incubation with a rabbit anti-human Fab antibody-HRP conjugate. The plate was washed and developed as described above.

KDR (VEGFR-2) [9] = molecular target: T1, KDR (VEGFR-2); test: Direct binding assay of Fab to KDR; design: the cDNA for KDR (VEGFR-2) extracellular domain is fused in-frame with the cDNA for human placental AP; made in house; host or cells: stably transfected NIH 3T3 cells, purified from supernatant on anti-AP antibody
Method: In a direct binding assay, various amounts of soluble Fab proteins were added to KDR (VEGFR-2)-coated 96-well Maxi-sorp microtiter plates and incubated at RT for 1 h, after which the plates were washed 3 times with PBST. The plates were then incubated at RT for 1 h with 100 Φl of a rabbit anti-human Fab antibody-HRP conjugate (Jackson ImmunoResearch Laboratory Inc., West Grove, Pa.). The plates were washed and developed following the procedure described above for the phage ELISA. […] Absorbance at 405 nm was measured to quantify the bound KDR (VEGFR-2)-AP molecules (8).
Target sequence in this assay (P35968 20-764 limits assumed): as the sequence (P35968 20-764 limits assumed) above

Row | Molecule | direct binding to immobilized KDR (KDR (VEGFR-2) [1]) | direct binding to immobilized KDR (KDR (VEGFR-2) [1]; listed as C-p1C11) | competition with 125I labeled VEGF for binding to immobilized KDR [2] | inhibition of FGF-stimulated activation of p44/p42 MAP kinases (p44/p42 MAP kinases; FGF 10 ng/ml, not shown) | inhibition of VEGF-stimulated activation of p44/p42 MAP kinases (p44/p42 MAP kinases; VEGF165 20 ng/ml) | binding to KDR expressed on early passage HUVEC [3] | inhibition of VEGF-stimulated phosphorylation (activation) of KDR receptor (KDR (VEGFR-2) [4]; VEGF165 20 ng/ml) | effect of antibody alone on activity of KDR receptor and p44/p42 MAP kinases (KDR (VEGFR-2) [4]; without VEGF) | koff (KDR (VEGFR-2) [5]) | kon (KDR (VEGFR-2) [5]) | blocking of KDR binding to immobilized VEGF [6] | inhibitory effect on VEGF-stimulated mitogenesis of HUVEC (HUVEC) | koff (KDR (VEGFR-2) [7]) | kon (KDR (VEGFR-2) [7]) | location of binding epitope(s) [8] | efficiency of binding to KDR (KDR (VEGFR-2) [9])
1 | B1 | binds more efficiently to immobilized KDR (VEGFR-2) than the parent scFv | bind more efficiently to immobilized KDR (VEGFR-2) receptor than the parent scFv | efficiently compete | does not inhibit | effectively inhibits | binds specifically to KDR (VEGFR-2) expressed on early passage HUVEC | effectively inhibits | Neither c-p1C11, nor C225 alone has any effects | 0.52 10^−4 s^−1 | 0.63 10^5 M^−1s^−1 | block KDR (VEGFR-2) receptor from binding to immobilized VEGF in a dose-dependent manner | effectively inhibit mitogenesis of HUVEC stimulated by VEGF | – | – | – | –
2 | B2 | – | – | – | – | – | – | – | – | – | – | – | – | 4.87 ± 0.18 10^−4 S^−1 | 12.4 ± 2.9 10^4 M^−1S^−1 | broader binding epitope(s) within KDR (VEGFR-2) Ig domains 1 to 3 | more efficient binders
